Test system: purified spectrin

Substance: calpain (added in the in-tube reaction)
- spectrin cleavage, gel stained with Coomassie's blue: Purified spectrins undergo calpain-mediated dynamic cleavage in a test tube due to ambient PAV impact

Source: US20140087401
